Changes are numbered by the printed parent chain. In names and notes the source's numbering stands. Values belong to the molecule of their own block, whether it stands above or below them.
System: Zea mays PPC1 (ZmPPC1, C4 PEPC)
Assay: malate dehydrogenase coupled PEPC enzymatic assay, maize C4 PPC1 and engineered variants
Type: biochemical
Conditions: for Km: 0-7.5 mM phosphoenolpyruvate, read-out: Km PEP; for Km / Vmax: 25° C, HEPES pH7.5; for increases in catalytic efficiency relative to wt ZmPPC1: Kcat/Km; for activity of C4 PEPC: substitution introduced into maize C4 PEPC (ZmPPC1)
Description: For both Arabidopsis C3 PPC1 (AtPPC1) and maize C4 PPC1 (ZmPPC1), the entire coding sequence for each was cloned into pET22b, which contains an amino-terminal 6×-HIS tag for protein purification, and expression was driven by the T7 promoter and lac operon. Relevant mutations were introduced by the Stratagene QuikChange mutagenesis kit using PCR amplification. Both wild type and mutant cDNA constructs were sequenced entirely following cloning into pet22b. Proteins were produced by growing transformed E. coli (BL21 CodonPlus) in autoinduction medium at 18° C. for 16 hours. Proteins were isolated by sonication of bacterial cells followed by passage over a nickel sepharose affinity column, elution with imidazole and separation on a GE SUPERDEX HILOAD 200 PG 16/60 all using an AKTA FPLC.
Enzyme analysis was conducted in vitro using protein that was generated by expression in E. coli using the pET22b vector. For expression, pET22b constructs were transformed into E. coli BL21-DE3 codon plus RIL cells and grown at 37° C. in autoinduction media until reaching an OD=1 after which these were transferred to 18° C. for 18 hours. Samples were collected and lysed by sonication. Protein was purified by passage through a His-trap nickel affinity column on an Akta FPLC and then eluted with 400 mM imidazole. Partially purified protein was then separated on an FPLC equipped with a HiPrep S200 size exclusion column (16/60) after which collected sample was concentrated by centrifugation to a final concentration of 4 mg/ml in 50% glycerol. Samples were stored at −20° C.
For enzymatic assays, a malate dehydrogenase coupled reaction was conducted with a range of substrate concentrations (0-7.5 mM phosphoenolpyruvate pyruvate) and a range of concentrations of allosteric inhibitor (0-50 mM malate). Assays were monitored using a Victor2 microplate reader at 25° C. Reactions consisted of […] PPC enzyme variants, 50 mM HEPES pH7.5, 10 mM MgCl2, 10 mM KHCO3 (carbonate substrate), 0.2 mM NADH, and 10 units/ml of malate dehydrogenase. Reaction time was 15 minutes and samples were measured on an ˜40 second interval. For measurement, which monitors loss of NADH, excitation wavelength was 340 nM and emission wavelength was 460 nM.

- effects of the allosteric inhibitor malate relative to wt ZmPPC1: greatly reduce
- activity of C4 PEPC: increased activity
B1: ZmPPC1 G678S: engineered Zea mays PPC1 with G678S substitution (G682S in SEQ ID NO:15) (protein)
chain: MASTKAPGPGEKHHSIDAQLRQLVPGKVSEDDKLIEYDALLVDRFLNILQDLHGPSLREFVQECYEVSADYEGKGDTTKLGELGAKLTGLAPADAILVASSILHMLNLANLAEEVQIAHRRRNSKLKKGGFADEGSATTESDIEETLKRLVSEVGKSPEEVFEALKNQTVDLVFTAHPTQSARRSLLQKNARIRNCLTQLNAKDITDDDKQELDEALQREIQAAFRTDEIRRAQPTPQDEMRYGMSYIHETVWKGVPKFLRRVDTALKNIGINERLPYNVSLIRFSSWMGGDRDGNPRVTPEVTRDVCLLARMMAANLYIDQIEELMFELSMWRCNDELRVRAEELHSSSGSKVTKYYIEFWKQIPPNEPYRVILGHVRDKLYNTRERARHLLASGVSEISAESSFTSIEEFLEPLELCYKSLCDCGDKAIADGSLLDLLRQVFTFGLSLVKLDIRQESERHTDVIDAITTHLGIGSYREWPEDKRQEWLLSELRGKRPLLPPDLPQTDEIADVIGAFHVLAELPPDSFGPYIISMATAPSDVLAVELLQRECGVRQPLPVVPLFERLADLQSAPASVERLFSVDWYMDRIKGKQQVMVGYSDSGKDAGRLSAAWQLYRAQEEMAQVAKRYGVKLTLFHGRGGTVGRGGGPTHLAILSQPPDTINGSIRVTVQGEVIEFCFSEEHLCFQTLQRFTAATLEHGMHPPVSPKPEWRKLMDEMAVVATEEYRSVVVKEARFVEYFRSATPETEYGRMNIGSRPAKRRPGGGITTLRAIPWIFSWTQTRFHLPVWLGVGAAFKFAIDKDVRNFQVLKEMYNEWPFFRVTLDLLEMVFAKGDPGIAGLYDELLVAEELKPFGKQLRDKYVETQQLLLQIAGHKDILEGDPFLKQGLVLRNPYITTLNVFQAYTLKRIRDPNFKVTPQPPLSKEFADENKPAGLVKLNPASEYPPGLEDTLILTMKGIAAGMQNTG
- Km: 2660 ± 333 µM
- Vmax: 17.74 ± 1.04 units/mg
- increases in catalytic efficiency relative to wt ZmPPC1: ~200%

- effects of the allosteric inhibitor malate relative to wt ZmPPC1: greatly reduce
- activity of C4 PEPC: increased activity
B2: ZmPPC1 T7781: engineered Zea mays PPC1 with T778I substitution (T782I in SEQ ID NO:15) (protein)
chain: B1 chain with S682G, T782I
- Km: 1190 ± 104 µM
- Vmax: 14.05 ± 0.44 units/mg
- increases in catalytic efficiency relative to wt ZmPPC1: ~300%

- effect of malate on enzyme (at 50 mM malate): completely inhibited
B3: ZmPPC1 wild type: wild type Zea mays PPC1, C4 PEPC, SEQ ID NO:15 (protein)
chain: B1 chain with S682G
- Km: 4620 ± 406 µM
- Vmax: 17.56 ± 2.35 units/mg

Source: patent US12168773B2, “Engineered phosphoenolpyruvate carboxylase enzymes” (The Regents of the University of California, priority 2019, dated 2024)
